Where two headings read alike, the source gives them in different places.
Columns and labels:
HCV mIRES RNA = assay: FRET titration of fluorescein-labelled RNA with Dabsyl-labelled peptides; format: binding; conditions: HCV loopIII RNA 10 nM, pH7.4, 110 mM KCl
Text: (§1) Oligoribonucleotides with a fluorescein attached to the 5′ end of the molecule (shown in FIG. 6a) were synthesised using conventional oligoribonucleotide techniques. A 19 mer (FIG. 6b) was used for control purposes
(§2) Fluoresein-labeled RNA was titrated with Dabsyl-labelled peptides. The donor (fluorescein) fluoresence was excited at 490 nm. In the presence of peptide, binding leads to a quenching of fluorescence by the non-fluorescent acceptor dye Dabsyl. The quenching curves allow the determination of binding affinities. Fluorescein-labelled RNA containing the mIRES was titrated with various peptides.
(§3) FIG. 7 illustrates binding curves for RNA containing the mIRES titrated with various peptides. Experimental conditions: Fam-labelled RNA (10 nM) was titrated with Dabsyl-labelled peptide in 50 mM Tris/Cl, pH7.4, 110 mM KCl, 5ug/ml BSA, 0.01% Triton X-100, 1%DMSO. Fluorescence (excitation 490 nm/emission at 535 nm) was determined in 96-well plates using a Fluorescence plate reader. The assay volume was 100 μl.
(§4) Dissociation constants were determined by fitting a binding isotherm (1-site-binding) to the titration data using the equation
(§5) Y=((Fmax−Fmin)−((Fmax−Fmin)*c/(Kd+c)))+Fmin

19mer control RNA = assay: FRET titration of fluorescein-labelled control RNA with Dabsyl-labelled peptides; format: binding
Text: as §1, §2, §3, §4, §5

IIIB-Dabcyl RNA = assay: Inhibition of paromomycin-TAMRA binding to IIIB-Dabcyl RNA (FRET); parameters: species or system HCV
Protocol: Measurements were made in a 2 mL cuvette. Increasing amounts of IIIB-Dabcyl RNA (corresponding to the amounts shown in the figure) were added to a solution of 10 nM paromomycin-TAMRA in the presence of 50 mM Tris.HCl pH7.5, 80 mM KCl. For each titration point emission spectra were acquired using a fixed wavelength of 552 nm with the excitation slits set to 5 nm and the emission slits set to 10 nm. Emission spectra were acquired over the range 570-600 nm. Two binding curves are presented, the first in the absence of a test molecule (FIG. 8a) and the second in the presence of 10 μM neomycin (FIG. 8b).

[1] = tested on: Dabsyl peptide with RRRRR core (synthetic); conditions: FRET quenching, 50 mM Tris pH 7.4, 110 mM KCl
[2] = tested on: Dabsyl peptide with KKKQR core (synthetic); conditions: FRET quenching
[3] = tested on: Dabsyl peptide with KKQKR core (synthetic); conditions: FRET quenching
[4] = tested on: Dabsyl peptide with KKQRR core (synthetic); conditions: FRET quenching
[5] = tested on: Dabsyl peptide with QQQQQ core (synthetic); conditions: FRET quenching, R2 N/A
[6] = tested on: Dabsyl peptide with KKKKK core (synthetic); conditions: FRET quenching
[7] = tested on: Dabsyl peptide with KKRQR core (synthetic); conditions: FRET quenching
[8] = tested on: eIF3 (eukaryotic initiation factor 3 complex); assay: EMSA
[9] = relative to DIII, no complex formed

Substance: QQQQQ
- Kd (HCV mIRES RNA): > 500 nM
- Kd (19mer control RNA): > 500 nM

Substance: Neomycin
- Ki (IIIB-Dabcyl RNA; 10 nM paromomycin-TAMRA, 10 μM neomycin): 520 nM
- Inhibition of paromomycin-TAMRA binding to IIIB-Dabcyl RNA (in words) (IIIB-Dabcyl RNA; 10 uM): inhibits paromomycin-TAMRA binding to IIIB-Dabcyl RNA

Substance: KKKKK
- Kd (HCV mIRES RNA): 49 nM
- Kd (19mer control RNA): > 500 nM

Substance: KKQRR
- Kd (HCV mIRES RNA): 41 nM
- Kd (19mer control RNA): > 500 nM

Substance: KKRQR
- Kd (HCV mIRES RNA): 104 nM
- Kd (19mer control RNA): > 500 nM

Substance: HCV mIRES RNA (loop III, FIG. 6a)
- Kd ([1]; ±10, 10 nM RNA): 30 nM
- Kd ([2]; 50 mM Tris pH 7.4, 110 mM KCl): 90 nM
- Kd ([3]; 50 mM Tris pH 7.4, 110 mM KCl): > 500 nM
- Kd ([4]; 50 mM Tris pH 7.4, 110 mM KCl): 41 nM
- Kd ([5]; 50 mM Tris pH 7.4, 110 mM KCl): > 500 nM
- Kd ([6]; 50 mM Tris pH 7.4, 110 mM KCl): 49 nM
- Kd ([7]; 50 mM Tris pH 7.4, 110 mM KCl): 104 nM

Substance: tRNA
- binding signal [8, 9]: 0.1%

Substance: RRRRR
- Kd (HCV mIRES RNA): 30 ± 10 nM
- Kd (19mer control RNA): 194 nM

Substance: KKKQR
- Kd (HCV mIRES RNA): 90 nM
- Kd (19mer control RNA): > 500 nM

Substance: HCV IRES Domain III (DIII)
- binding signal ([8]; reference, 60 mM KCl, 3 mM MgCl2, 200 nM tRNA, on ice, relative affinity by unlabelled RNA competition): 100%

Substance: HCV IRES Domain II (DII)
- binding signal [8, 9]: 0.5%

Substance: KKQKR
- Kd (HCV mIRES RNA): > 500 nM
- Kd (19mer control RNA): > 500 nM

Substance: 19-mer control RNA (FIG. 6b)
- Kd [1]: 194 nM
- Kd ([2]; R2 N/A): > 500 nM
- Kd ([3]; R2 N/A): > 500 nM
- Kd ([4]; R2 N/A): > 500 nM
- Kd [5]: > 500 nM
- Kd ([6]; R2 N/A): > 500 nM
- Kd ([7]; R2 N/A): > 500 nM
